Results on 1 molecule are retold here after paper doi:10.1101/2021.09.12.459413.

For this test, the target named is freshly isolated human LDL (human). In words: ELISA. A general note: In an ELISA, binding on a coated surface is turned into a signal by an enzyme label.

B1: rabbit SAMD1 fragment from a.a. 238 to the C-terminus end at a.a. 550 (domain or fragment)
chain: QQPQPPPEGGAARAGGPARPVSLREVVRYLGGSSGAGGRLTRGRVQGLLEEEAAARGRLERTRLGALALPRGDRPGRAPPAASARAARNKRAGEERVLEKEEEEEEEEDDEDDDDDVVSEGSEVPESDRPAGAQHHQLNGGERGPQTAKERAKEWSLCGPHPGQEEGRGPAAGSGTRQVFSMAALSKEGGSASSTTGPDSPSPVPLPPGKPALPGADGTPFGCPAGRKEKPADPVEWTVMDVVEYFTEAGFPEQATAFQEQEIDGKSLLLMQRTDVLTGLSIRLGPALKIYEHHIKVLQQGHFEDDDPEGFLG
Take B1: the Kd (usually the equilibrium constant for the complex coming apart) was found to be 0.015 µM.
